{
  "source": "patent US6855549B1",
  "about": "“Methods and compositions for increasing the infectivity of gene transfer vectors” (The University of Iowa Research Foundation, priority 1998, dated 2005)",
  "molecules": {"B1": {"name": "KGF: recombinant human keratinocyte growth factor (protein, UniProt P21781 32-194, looked up)", "Fibroblast growth factor 7": "CNDMTPEQMATNVNCSSPERHTRSYDYMEGGDIRVRRLFCRTQWYLRIDKRGKVKGTQEMKNNYNIMEIRTVAVGIVAIKGVESEFYLAMNKEGKLYAKKECNEDCNFKELILENHYNTYASAKWTHNGGEMFVALNQKGIPVRGKKTKKEQKTAHFLPMAIT"}},
  "key": {"[1]": {"system": "human bronchial epithelial cells", "format": "cell-based", "method": "Primary human airway epithelial cells were collected by enzymatic digestion of bronchial samples from lung transplants as previously described (Kondo et al., 1991; Zabner et al., 1996). Isolated airway primary cells were seeded at a density of 5×10^5 cells/cm^2 onto collagen-coated Millicell-HA culture inserts (Millipore, Bedford, Mass.). Primary cultures were grown at the air-liquid interface for more than 2 wk, at which time differentiation into a mucociliary epithelium occurs. The culture medium, used to feed only the basolateral side of the cells, contained 49% Dulbecco's modified Eagle's medium (DMEM), 49% Ham's F12, and 2% Ultraser G (BioSepra, Cedex, France).\nRecombinant AAV virus was produced by a CaPO4 co-transfection protocol and was purified through three rounds of isopycnic cesium chloride ultracentrifuigation, as previously described (Duan et al., 1997). […] Typical yields were 1×10^9 particles/μl, determined on the basis of DNA slot-blot hybridization assays against plasmid standards. […] Viral preparations were evaluated for the contamination of wild type AAV (wtAAV) by immunocytochemical staining of AV.GFP3ori/Ad.CMVLacZ (Duan et al., 1998)-coinfected 293 cells with anti-Rep antibodies (American Research Products, Belmont, Mass.). […]"}, "[2]": {"system": "airway epithelial cells", "assay": "BrdU staining of KGF-treated airway cultures", "format": "cell-based, human", "conditions": "KGF 100 ng/ml, two consecutive days", "method": "Identification of proliferating airway epithelial cells were performed using bromodeoxyuridine (BrdU) labeling reagents from Zymed Laboratories (South San Francisco, Calif.). Cells were treated with recombinant human keratinocyte growth factor (rKGF; Chiron, San Diego, Calif.) at 100 ng/ml for two consecutive days. The cells were then pulse labeled for 12 hr with a 1:100 dilution of the BrdU labeling reagent prior to fixation in 10% neutral buffered formalin. Histochemical staining of BrdU incorporation into nuclei was performed according to the manufacturer's instructions. Cells were counterstained with hematoxylin and the cell culture filters were examined by en face microscopy of the apical surface."}, "[3]": {"system": "epithelia", "conditions": "in vivo; cited from earlier work"}},
  "data": [
    {"molecule": "B1", "values": [
      {"measurement": "long-term (40 day) gene expression after KGF", "setting": "[1]; infection from the basal side", "result": "inhibited twofold"},
      {"measurement": "efficiency of rAAV transduction after KGF", "setting": "[1]; virus apical or basolateral", "result": "did not increase the efficiency of rAAV transduction"},
      {"measurement": "cell proliferation by BrdU incorporation", "setting": "[2]", "result": "significant increases in cell proliferation"},
      {"measurement": "mutagenicity", "setting": "[3]", "result": "is not mutagenic"}
    ]}
  ]
}
